B1: TPR 5TU (parent)
chain: GGAUCUUCUCGAUCUAACAAAAAAGACAAAUCUGCCACAAAGCUUGAGAGCAUCUUCGGAUGCAGAGGCGGCAGCCUUCGGUGGCGCGAUAGCGCCAACGUUCUCAACUAUGACACGCAAAACGCGUGCUCCGUUGAAUGGAGUUUAUCAUG

Fewer inactive variants are shown than the library holds.

This series covers variants of B1. As to the kind of experiment: polymerase ribozyme fitness, log enrichment relative to wild type (log ratio); higher = more active; in vitro selection for triplet polymerase activity. In short, it runs like this: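 Mutant libraries were PCR-built and transcribed for each subunit of a heterodimeric triplet polymerase ribozyme and selected for one round in triplicate at −7 °C, frozen, before gel excision of extended constructs and streptavidin-bead capture. Input and output libraries were Illumina-sequenced, keeping genotypes with ≥10 input reads and ≥1 read per output. Fitness is a logarithmic ratio of genotype to wild-type enrichment, in base 2, using inverse-variance-weighted replicate averages.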
Take A19U C38G G59C G86A C99U G117U C118A U127A A138G: the “polymerase ribozyme fitness (log ratio)” value is at most -4.2. As for A19C G117C, the figure is 0.678; as for A19U A24C C35U C57U A66C G86U, -4.08; as for A19C G62C C72A C87A C131U U135A, at most -4.2. As for C18U G50C G88C C99U, the “polymerase ribozyme fitness (log ratio)” value is at most -4.2. In the case of A19C C123G, the “polymerase ribozyme fitness (log ratio)” value was determined as 0.921.

Turning to A19U A40G G124A, the “polymerase ribozyme fitness (log ratio)” value is -4.11.

As for A19G A73U G94C, the “polymerase ribozyme fitness (log ratio)” value was -2.39. On to A19G C87G G92A U134A, for which the “polymerase ribozyme fitness (log ratio)” value is at most -4.2. As for A19C U55A A91G, the figure is -2.67; as for C18U C93U C99U A150G, -2.85. Consider C18U U56A C85A G124A U135G G136A, for which the “polymerase ribozyme fitness (log ratio)” value was at most -4.2. With A19U A106G G143C, the “polymerase ribozyme fitness (log ratio)” value was -2.4. As for A19U A37U U44G A66U G92U C96A C123U G124A, the figure is at most -4.2; as for A19C A39U U53G A89U U104G C108A G136A A138C U145A, at most -4.2. Under A19G A91G C95U C125U stands -4.01. For A19C A52G G92C C96A A147C, the “polymerase ribozyme fitness (log ratio)” value is -3.53. As for A19G C85A, the figure is -2.09; as for A19C A66C G94A U134G, at most -4.2; as for A19C A29C U33G C87G C108U U135A U148A, at most -4.2. Consider C18U C38U U55C A97U A120C, for which the “polymerase ribozyme fitness (log ratio)” value is -1.43.

Turning to A19G A41C G42C A49C U90C U127A, the “polymerase ribozyme fitness (log ratio)” value is at most -4.2.

Consider C18U G84A U102A C123G, for which the “polymerase ribozyme fitness (log ratio)” value was -2.76. Under A19U A23G U90G stands -3.99.

With A19U A26C A30U C35U A41U G84A U135A, the “polymerase ribozyme fitness (log ratio)” value is at most -4.2. Turning to A19G U148G, the “polymerase ribozyme fitness (log ratio)” value is -3.88. As for A19C U45A G59U U148A C149G, the figure is at most -4.2. As for A19U C32A G84A G128U C131U A137G, the figure is -3.73; as for A19G U55A G68A G71A C103U, at most -4.2; as for A19U G25U C35A G65U A91U A120G G140A A142U, -4.19.

As to A19C C87U A97G A137U A142C, the “polymerase ribozyme fitness (log ratio)” value was -4.12.

As to A19U A37C U135G, the “polymerase ribozyme fitness (log ratio)” value is -3.82.

A19U A21U G94A: the “polymerase ribozyme fitness (log ratio)” value is -1.09.

Consider A19G U82G G94A C96U A97U G124U, for which the “polymerase ribozyme fitness (log ratio)” value was -2.53. Under A19C C38U C96U A142U stands -0.812; under A19G A91U, at most -4.2; under A19U C85A A113U, -3.44.

In the case of A19C U109G, the “polymerase ribozyme fitness (log ratio)” value is -0.641.

For the variant A19U C87U G141U U146C, the “polymerase ribozyme fitness (log ratio)” value is 0.666. For the variant A19G A21C A30U C38G A41C G48A U77G C93G C114G, the “polymerase ribozyme fitness (log ratio)” value is at most -4.2. Regarding A19C A22U G42U C75G C76A G94A A110U G133U G143U U146G, the “polymerase ribozyme fitness (log ratio)” value is at most -4.2. Under A19C A52G G88A A106G U139A stands at most -4.2; under A19U A21G U45G U56A G92U, -1.94; under A19G G42A A66C C85U A106U U148A, at most -4.2.

On to A19C U44A, for which the “polymerase ribozyme fitness (log ratio)” value is -3.87. With C18U C85U C105U, the “polymerase ribozyme fitness (log ratio)” value amounted to 0.286.

As for C18U C51U A89U C96A, the “polymerase ribozyme fitness (log ratio)” value is -2.24. For A19U G48A C116G U127G, the “polymerase ribozyme fitness (log ratio)” value is at most -4.2. Under A19U A49C C54A G62A A119G C125U U144A stands at most -4.2. As for A19G A23U C57G G84U C93G G94C A122U A142C, the figure is at most -4.2.

Turning to A19C C51U A52G G84U A89U G124U G141U, the “polymerase ribozyme fitness (log ratio)” value was -1.23. As for C18U U53G C54A A91G A110G C114G, the “polymerase ribozyme fitness (log ratio)” value is at most -4.2. C18U C38G A40G U61A G81C C96A U146C: the “polymerase ribozyme fitness (log ratio)” value is at most -4.2. As for C18U C38G A40G U61A G81C C96A C116G A119U, the figure is at most -4.2. Under A19C C96U A106G A120C stands 0.311; under A19U A52U A97G, -2.59; under A19G C57G G84U, -2.3. As for A19G C35A G42C G68C G92A, the figure is at most -4.2; as for A19G A40C C93U, -0.92. Consider A19C C79U A98U, for which the “polymerase ribozyme fitness (log ratio)” value was -1.81. As for A19U A22G A39C C79G, the figure is at most -4.2; as for A19U C105G, -1.81; as for C18U C27U A28C G74U G100U U144G G152C, at most -4.2. As for C18U G80U U148C, the figure is -3.99. With A19C C87U, the “polymerase ribozyme fitness (log ratio)” value was -0.722. Take A19C U31A C38A G80A A98U: the “polymerase ribozyme fitness (log ratio)” value was -0.863.

As for C18U C96U, the “polymerase ribozyme fitness (log ratio)” value is -0.659. Regarding A19C G46A G62A G94A C95A, the “polymerase ribozyme fitness (log ratio)” value was at most -4.2. As to A19G C85G G117A A137G, the “polymerase ribozyme fitness (log ratio)” value is -2.73. As for A19C G48C C51A G86U G128U, the figure is at most -4.2; as for A19U A30U G62C G65C C96A, at most -4.2.

Turning to A19G A47C C57A C96U U101G C123U U145A, the “polymerase ribozyme fitness (log ratio)” value was -0.877. As for A19U C27A A91U G94U G126U G141A G143C, the figure is at most -4.2; as for A19G G46C A107U A120C C129U, at most -4.2; as for A19C A24G G94U C95G, at most -4.2. As for A19U A24U G46U A49C U82G C99A, the figure is at most -4.2; as for C18U A91G, -3.63. For the variant A19U A49G C57A A60U C116U, the “polymerase ribozyme fitness (log ratio)” value is -2.27. For A19U C63U C96U C105G C116A, the “polymerase ribozyme fitness (log ratio)” value is -2.98.

Turning to A19C A41C G48C C87U A91C A115C A122U G136C U145A, the “polymerase ribozyme fitness (log ratio)” value is at most -4.2. A19U A41C G58A C85G: the “polymerase ribozyme fitness (log ratio)” value was -2.71. As for A19U A120U, the “polymerase ribozyme fitness (log ratio)” value is -0.806. Under A19U A20C G59A A89U C95U G126C stands -0.274.

Values taken from the RNAGym collection of RNA variant scans (doi:10.1073/pnas.2313332121).
